Molecular target: CD28 (human, UniProt P10747)
Assay: cell-based or functional assay

B1: CD80 (ligand)
chain: VIHVTKEVKEVATLSCGHNVSVEELAQTRIYWQKEKKMVLTMMSGDMNIWPEYKNRTIFDITNNLSIVILALRPSDEGTYECVVLKYEKDAFKREHLAEVTLSVKADFPTPSISDFEIPTSNIRRIICSTSGGFPEPHLSWLENGEELNAINTTVSQDPETELYAVSSKLDFNMTTNHSFMCLIKYGHLRVNQTFNWNTTKQEHFPDNLLPSWAITLISVNGIFVICCLTYCFAPRCRERRRNERLRRESVRPV
Granzyme B recruitment to T-cell tumor cell junctions: 2.2 fold | NF-kB-luciferase signal in single OKT3-stimulated Jurkat T cells: 3.8 fold | expansion of CAR-transduced T cells stimulated weekly on LNCaP tumor monolayers: ~2 fold | expansion of CMV pp65-specific T cells restimulated with HLA-A*0201^+ pp65-transduced Caco-2 cells: 209 fold | expansion of Pz1^+ T cells cocultured weekly with LNCaP tumor monolayers: 1040 fold enrichment | expansion of T cells stimulated weekly with plate-bound OKT3: 237 fold greater proliferation | in vivo expansion of Pz1^+ T cells in PC3-PSMA tumor bearing mice (bioluminescence): 41 fold higher photon count

Reference: US20160008398A1, “CONSTITUTIVE EXPRESSION OF COSTIMULATORY LIGANDS ON ADOPTIVELY TRANSFERRED T LYMPHOCYTES” (Memorial Sloan-Kettering Cancer Center, published 2016)
